According to article doi:10.1101/172908 (bioRxiv, 2017):

Target: the molecule itself
Assay: cryo-EM structure

B1: rat Kir6.2 (natural protein)
chain: MLSRKGIIPEEYVLTRLAEDPTEPRYRTRERRARFVSKKGNCNVAHKNIREQGRFLQDVFTTLVDLKWPHTLLIFTMSFLCSWLLFAMVWWLIAFAHGDLAPGEGTNVPCVTSIHSFSSAFLFSIEVQVTIGFGGRMVTEECPLAILILIVQNIVGLMINAIMLGCIFMKTAQAHRRAETLIFSKHAVITLRHGRLCFMLRVGDLRKSMIISATIHMQVVRKTTSPEGEVVPLHQVDIPMENGVGGNSIFLVAPLIIYHVIDSNSPLYDLAPSDLHHHQDLEIIVILEGVVETTGITTQARTSYLADEILWGQRFVPIVAEEDGRYSVDYSKFGNTVKVPTPLCTARQLDEDRSLLDALTLASSRGPLRKRSVAVAKAKPKFSISPDSLS
**Q.** Which “stoichiometry N” value does the source give for B1 here?
**A.** The value was 4.
